Assay results as given in article PMC4045939 (2014).

T1: RSV M2 protein peptide on H-2Kd (mouse)
T1 peptide: SYIGSINNI

B1: TRBV13-2 (TCR)
alpha TRAV7-3*01 CDR3: CAVNSGYNKLTF
beta TRBV13-2*01 CDR3: CASGAGTGYAEQFF
B2: TRBV13-1 (TCR)
alpha TRAV12-2*01 CDR3: CALRNNNNAPRF
beta TRBV13-1*02 CDR3: CASSDGGKEVFF

Biological target: T1, RSV M2 protein peptide on H-2Kd
Assay: in vitro CTL assay; CB6F1 splenocyte targets loaded with graded M2 peptide, E:T ratio of 50; EC50 from a 4-parameter non-linear fit; full-length, on cells

Row | Binder | EC50 of peptide [nM]
1 | B1 | 0.243
2 | B2 | 0.0571
